# According to paper PMC3245945 (Nucleic Acids Research, 2011):
# Columns and labels:
# SEC = target: the molecule itself; test: SEC
# atomic force microscopy = target: the molecule itself; test: atomic force microscopy
# crystal structure = target: the molecule itself; test: crystal structure
Protein,stoichiometry N (SEC),stoichiometry N (atomic force microscopy),stoichiometry N (crystal structure)
"WHY2, Solanum tuberosum Whirly protein located in the mitochondria (natural protein, Solanum tuberosum (potato)) ADAGKREGRVFAPYSVFKGKAALSAEPRLPTFNRLDSGGVKLNRRGVIMLTFWPSVGERKYDWEKRQLFALSATEVGSLISMGTRDSSEFFHDPSMLSSNAGQVRKSLSIKPNADGSGYFISLSVVNNNLKTNDRFTVPVTTAEFAVMRTAFSFALPHIMGWDRFTNRP",4,24,
"WHY2 K67A (natural protein, Solanum tuberosum (potato)) ADAGKREGRVFAPYSVFKGAAALSAEPRLPTFNRLDSGGVKLNRRGVIMLTFWPSVGERKYDWEKRQLFALSATEVGSLISMGTRDSSEFFHDPSMLSSNAGQVRKSLSIKPNADGSGYFISLSVVNNNLKTNDRFTVPVTTAEFAVMRTAFSFALPHIMGWDRFTNRP",4,,24
